Our source for the binding result and Kd values is paper doi:10.1101/2023.04.15.537002, “Identification of merozoite secreted repertoire and immuno-pharmacological inhibition of a novel host-parasite interaction to block malarial infection” (bioRxiv, 2023).

Assay [1] deals with T1, recombinant PfRhopH3 C-terminal fragment (PfRhopH3C; 617-865 aa) (Plasmodium falciparum, UniProt Q8I395 617-865).
T1 construct: RhopH3 (high molecular weight rhoptry protein 3) of Plasmodium falciparum, C-terminal portion, residues 617-865 (747 bp); also called rPfRhopH3C; rRhopH3C; source: recombinant, codon-optimized gene in pMTSAra, induced by L-arabinose, purified (Ni-NTA)
T1 sequence: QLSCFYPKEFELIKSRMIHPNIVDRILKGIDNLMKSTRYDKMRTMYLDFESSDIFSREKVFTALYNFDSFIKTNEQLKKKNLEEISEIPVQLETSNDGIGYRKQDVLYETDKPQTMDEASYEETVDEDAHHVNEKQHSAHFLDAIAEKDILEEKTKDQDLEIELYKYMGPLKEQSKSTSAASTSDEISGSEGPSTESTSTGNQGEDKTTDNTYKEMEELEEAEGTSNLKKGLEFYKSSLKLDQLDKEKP
Description: ELISA; PfRhopH3C (200 ng) coated overnight; overlaid with 14-3-3[…] TBD or full length; detected with anti-14-3-3[…] antibodies, O.D.450. Conditions: both partners purified. On the technique in general: An ELISA detects its analyte on a solid surface through an enzyme-linked reagent.

Assay [2] has as its target T1, recombinant PfRhopH3 C-terminal …. Description: MST; 14-3-3[…] (10 uM) labelled with NT-647 NHS, titrated with different concentrations of PfRhopH3C. Conditions: both partners purified.

B1: recombinant 14-3-3[…] Target Binding Domain (TBD; 94-246 aa) (domain or fragment, human, UniProt Q04917 94-246, looked up)
chain: ETVCNDVLSLLDKFLIKNCNDFQYESKVFYLKMKGDYYRYLAEVASGEKKNSVVEASEAAYKEAFEISKEQMQPTHPIRLGLALNFSVFYYEIQNAPEQACLLAKQAFDDAIAELDTLNEDSYKDSTLIMQLLRDNLTLWTSDQQDEEAGEGN
notes: also called 14-3-3[…] TBD; source: recombinant, PCR-amplified into pMTSAra, induced by L-arabinose, purified (Ni-NTA)
As to B1, the binding result in assay [1] is on record as “binds”.

B2: recombinant human 14-3-3[…] (eta), full length (246 aa) (natural protein, UniProt Q04917 1-246, looked up)
chain: MGDREQLLQRARLAEQAERYDDMASAMKAVTELNEPLSNEDRNLLSVAYKNVVGARRSSWRVISSIEQKTMADGNEKKLEKVKAYREKIEKELETVCNDVLSLLDKFLIKNCNDFQYESKVFYLKMKGDYYRYLAEVASGEKKNSVVEASEAAYKEAFEISKEQMQPTHPIRLGLALNFSVFYYEIQNAPEQACLLAKQAFDDAIAELDTLNEDSYKDSTLIMQLLRDNLTLWTSDQQDEEAGEGN
modifications: labelled with amine-reactive dye NT-647 NHS (for MST only)
notes: human 14-3-3 protein eta, gene ID YWHAH, full length, 246 aa (738 bp); the discussion names it eta; also called 14-3-3[…] full length; r14-3-3[…]; source: recombinant, codon-optimized gene in pET-28a(+), induced by IPTG, purified (Ni-NTA)
Broadly, the Kd is a measure of binding affinity in units of concentration. On to B2, for which the dissociation constant (Kd) in assay [2] is 66 nM.
